Patent publication US20060030527A1

Target: Fc receptor on THP-1 cells
Experiment: cell-based or functional assay

**Q.** For “human IgG1 (heat aggregated, plate coated) (antibody)”, which TNF secretion by THP-1 cells on wells coated with 10 ug/well heat aggregated protein is on record?
**A.** > 40 ng/well
